# Substitutions are numbered along the chain they refer to.
# B1: Clone 16 antibody (CL16), parental IgG1 (antibody, V domains shown)
# VH: EVQLLESGGGLVQPGGSLRLSCAASGFTFSYYYMQWVRQAPGKGLEWVSYIGSSGGVTNYADSVKGRFTISRDNSKNTLYLQMNSLRAEDTAVYYCARVGLGDAFDIWGQGTMVTVSS
# VL: QYELTQPPSASGTPGQRVTMSCSGSSSNIGLNYVSWYQQLPGTAPKLLISRNNQRPSGVPDRFSGSKSGTSASLAISGLRSEDEADYYCAAWDDSLSGEVFGGGTKLTVL
# notes: also called Clone 16-PA; parental Clone 16 monoclonal antibody
# B2: 2C2 monoclonal antibody (IgG1) (antibody, V domains shown)
# VH: B1 VH
# VL: B1 VL with Y2S, E3V, M20I, S26L, L96P, S97P, V100A
# What was measured:
# [1] = biological target: T1, recombinant HER3 (Cat. No. 348-RB, R&D Systems) (UniProt P21860 20-643); assay: HRG-HER3 binding ELISA: HRGb1 coated, antibody dilutions premixed with 5 ug/ml recombinant His-tagged HER3, bound HER3 detected with anti-His HRP; blocked ligand HRG
# T1 construct: Detected through a His tag; also called labeled recombinant HER3 protein
# [2] = biological target: human HER3 on human cancer cell lines (human, UniProt P21860 20-1342); assay: cell-based or functional assay
Binder,IC50 (read off the curve) [1],"potency by IC50 in HRGβ1-induced pHER3 ELISA, MCF-7 cells, against MM and AMG [2]"
B1,~0.7 µg/mL,
B2,,~5 fold
